The stoichiometry N is the number of molecules, sites or subunits per partner or assembly.

Experimental findings from PMC6406451 are described below.

For the assay, the target named is human TRPM8 fused C-terminally to TEV-GFP-His8-tag (human), Q7Z2W7. In words: SDS-PAGE with in-gel GFP fluorescence; crude S. cerevisiae membranes separated by SDS-PAGE, GFP fluorescence of the fusion read in the gel. Conditions: remark: other sources report otherwise.

B1: human TRPM8 fused C-terminally to TEV-GFP-His8-tag, Q7Z2W7 1-1104 (natural protein)
chain: MSFRAARLSMRNRRNDTLDSTRTLYSSASRSTDLSYSESDLVNFIQANFKKRECVFFTKDSKATENVCKCGYAQSQHMEGTQINQSEKWNYKKHTKEFPTDAFGDIQFETLGKKGKYIRLSCDTDAEILYELLTQHWHLKTPNLVISVTGGAKNFALKPRMRKIFSRLIYIAQSKGAWILTGGTHYGLMKYIGEVVRDNTISRSSEENIVAIGIAAWGMVSNRDTLIRNCDAEGYFLAQYLMDDFTRDPLYILDNNHTHLLLVDNGCHGHPTVEAKLRNQLEKYISERTIQDSNYGGKIPIVCFAQGGGKETLKAINTSIKNKIPCVVVEGSGQIADVIASLVEVEDALTSSAVKEKLVRFLPRTVSRLPEEETESWIKWLKEILECSHLLTVIKMEEAGDEIVSNAISYALYKAFSTSEQDKDNWNGQLKLLLEWNQLDLANDEIFTNDRRWESADLQEVMFTALIKDRPKFVRLFLENGLNLRKFLTHDVLTELFSNHFSTLVYRNLQIAKNSYNDALLTFVWKLVANFRRGFRKEDRNGRDEMDIELHDVSPITRHPLQALFIWAILQNKKELSKVIWEQTRGCTLAALGASKLLKTLAKVKNDINAAGESEELANEYETRAVELFTECYSSDEDLAEQLLVYSCEAWGGSNCLELAVEATDQHFIAQPGVQNFLSKQWYGEISRDTKNWKIILCLFIIPLVGCGFVSFRKKPVDKHKKLLWYYVAFFTSPFVVFSWNVVFYIAFLLLFAYVLLMDFHSVPHPPELVLYSLVFVLFCDEVRQWYVNGVNYFTDLWNVMDTLGLFYFIAGIVFRLHSSNKSSLYSGRVIFCLDYIIFTLRLIHIFTVSRNLGPKIIMLQRMLIDVFFFLFLFAVWMVAFGVARQGILRQNEQRWRWIFRSVIYEPYLAMFGQVPSDVDGTTYDFAHCTFTGNESKPLCVELDEHNLPRFPEWITIPLVCIYMLSTNILLVNLLVAMFGYTVGTVQENNDQVWKFQRYFLVQEYCSRLNIPFPFIVFAYFYMVVKKCFKCCCKEKNMESSVCCFKNEDNETLAWEGVMKENYLVKINTKANDTSEEMRHRFRQLDTKLNDLKGLLKEIANKIK
As to B1, the stoichiometry N is 2.
